Reference: patent US20220402983A1 (Janssen / Centocor, published 2022)
*1 amine or outer side, *2 acyl side, *3 side chain or, on linkers, in order; H or OH if unused. Bridges are numbered along the chain shown (N, C = ends). Where no end group is shown, it is not given here. [ ]: non-standard residue; d: D form. The star is where a group is joined. Phe(4-OMe) = COc1ccc(C[C@H](N[*:1])C(=O)[*:2])cc1; Trp(7-Me) = Cc1cccc2c(C[C@H](N)C(=O)O)c[nH]c12; 2Nal = N[C@@H](Cc1ccc2ccccc2c1)C(=O)O; Propanoyl(3,3,3-F3) = O=C(CC(F)(F)F)*; AEF = NCCOc1ccc(C[C@H](N)C(=O)O)cc1; αMeF = C[C@](N)(Cc1ccccc1)C(=O)O; NMeβAla = CN(CCC(=O)[*:2])[*:1]; Pen = CC(C)(S)[C@H](N)C(=O)O; αMeK = C[C@](N)(CCCCN)C(=O)O; 3Quin = not defined here; Thp = NC1(C(=O)O)CCOCC1; Abu = CC[C@H](N)C(=O)O; Piv = CC(C)(C)C(=O)*; Propionyl = CCC(=O)*; Tfa = O=C(C(F)(F)F)*

T1: human IL-23R (interleukin-23 receptor) (human, UniProt Q5VWK5 24-629)
T1 sequence (looked up): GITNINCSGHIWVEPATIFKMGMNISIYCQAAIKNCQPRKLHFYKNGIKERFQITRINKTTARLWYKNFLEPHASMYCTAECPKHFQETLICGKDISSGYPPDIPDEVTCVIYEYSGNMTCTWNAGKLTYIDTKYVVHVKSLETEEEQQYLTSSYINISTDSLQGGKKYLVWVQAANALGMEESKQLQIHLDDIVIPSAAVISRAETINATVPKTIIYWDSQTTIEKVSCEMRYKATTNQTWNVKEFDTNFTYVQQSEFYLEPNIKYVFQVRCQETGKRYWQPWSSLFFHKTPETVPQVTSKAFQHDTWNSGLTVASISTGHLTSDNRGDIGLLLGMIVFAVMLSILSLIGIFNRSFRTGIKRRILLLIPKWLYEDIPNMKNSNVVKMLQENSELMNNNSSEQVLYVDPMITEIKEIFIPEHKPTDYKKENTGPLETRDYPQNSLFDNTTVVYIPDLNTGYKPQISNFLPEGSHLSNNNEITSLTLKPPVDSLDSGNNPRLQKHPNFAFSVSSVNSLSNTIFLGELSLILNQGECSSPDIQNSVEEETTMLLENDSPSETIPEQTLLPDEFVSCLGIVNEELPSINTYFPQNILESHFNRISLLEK

B1: Compound No. 6 (peptide)
peptide: Propionyl-[dR][Pen]QTWQ[Pen][AEF][2Nal][Thp]K(Tfa)N[Thp]-NH2
modifications: disulfide 2-7
SMILES: CCC(=O)N[C@H](CCCNC(=N)N)C(=O)N[C@@H]1C(=O)N[C@@H](CCC(N)=O)C(=O)N[C@@H]([C@@H](C)O)C(=O)N[C@@H](Cc2c[nH]c3ccccc23)C(=O)N[C@@H](CCC(N)=O)C(=O)N[C@H](C(=O)N[C@@H](Cc2ccc(OCCN)cc2)C(=O)N[C@@H](Cc2ccc3ccccc3c2)C(=O)NC2(C(=O)N[C@@H](CCCCNC(=O)C(F)(F)F)C(=O)N[C@@H](CC(N)=O)C(=O)NC3(C(N)=O)CCOCC3)CCOCC2)C(C)(C)SSC1(C)C
B2: Compound No. 1 (peptide)
peptide: Ac-[Pen]NT[Trp(7-Me)]K(Ac)[Pen][AEF][3Quin][αMeK]K(Ac)N[dL]-NH2
modifications: disulfide 1-6; reading uncertain; also: printed as Ac-[Pen]-N-T-[W(7-Me)]-[Lys(Ac)]-[Pen]-Phe[4-(2-aminoethoxy)]-[3-Quin]-[a-MeLys]-[Lys(Ac)]-N-[(D)Leu)]-NH2
B3: Compound No. 8 (peptide)
peptide: Propionyl-[dR][Pen]QTWQ[Pen][AEF][2Nal][Thp]EN[NMeβAla]-NH2
modifications: disulfide 2-7
SMILES: CCC(=O)N[C@H](CCCNC(=N)N)C(=O)N[C@@H]1C(=O)N[C@@H](CCC(N)=O)C(=O)N[C@@H]([C@@H](C)O)C(=O)N[C@@H](Cc2c[nH]c3ccccc23)C(=O)N[C@@H](CCC(N)=O)C(=O)N[C@H](C(=O)N[C@@H](Cc2ccc(OCCN)cc2)C(=O)N[C@@H](Cc2ccc3ccccc3c2)C(=O)NC2(C(=O)N[C@@H](CCC(=O)O)C(=O)N[C@@H](CC(N)=O)C(=O)N(C)CCC(N)=O)CCOCC2)C(C)(C)SSC1(C)C
B4: Compound No. 111 (peptide)
peptide: Ac-[dR][Pen]NT[Trp(7-Me)]K(Ac)[Pen][AEF][2Nal][Thp]K(Ac)N[αMeF]-NH2
modifications: disulfide 2-7
SMILES: CC(=O)NCCCC[C@@H]1NC(=O)[C@H](Cc2c[nH]c3c(C)cccc23)NC(=O)[C@H]([C@@H](C)O)NC(=O)[C@H](CC(N)=O)NC(=O)[C@@H](NC(=O)[C@@H](CCCNC(=N)N)NC(C)=O)C(C)(C)SSC(C)(C)[C@@H](C(=O)N[C@@H](Cc2ccc(OCCN)cc2)C(=O)N[C@@H](Cc2ccc3ccccc3c2)C(=O)NC2(C(=O)N[C@@H](CCCCNC(C)=O)C(=O)N[C@@H](CC(N)=O)C(=O)N[C@@](C)(Cc3ccccc3)C(N)=O)CCOCC2)NC1=O
B5: Compound No. 75 (peptide)
peptide: Ac-[Pen]NT[Trp(7-Me)]K(Ac)[Pen][AEF][2Nal][αMeK]K(Ac)N[Thp]-NH2
modifications: disulfide 1-6
SMILES: CC(=O)NCCCC[C@@H]1NC(=O)[C@H](Cc2c[nH]c3c(C)cccc23)NC(=O)[C@H]([C@@H](C)O)NC(=O)[C@H](CC(N)=O)NC(=O)[C@@H](NC(C)=O)C(C)(C)SSC(C)(C)[C@@H](C(=O)N[C@@H](Cc2ccc(OCCN)cc2)C(=O)N[C@@H](Cc2ccc3ccccc3c2)C(=O)N[C@@](C)(CCCCN)C(=O)N[C@@H](CCCCNC(C)=O)C(=O)N[C@@H](CC(N)=O)C(=O)NC2(C(N)=O)CCOCC2)NC1=O
B6: Compound No. 9 (peptide)
peptide: [dR][Pen]QTWQ[Pen][AEF][2Nal][Thp]EN[Thp]-NH2
modifications: disulfide 2-7; not fully specified (N-terminus)
B7: Compound No. 64 (peptide)
peptide: Ac-[Abu]QT[Trp(7-Me)]K(Ac)C[AEF][2Nal][αMeK]K(Ac)N[dK]-NH2
modifications: thioether 1-6
B8: Compound No. 5 (peptide)
peptide: {Propanoyl(3,3,3-F3)}-[dR][Pen]QTWQ[Pen][AEF][2Nal][Thp]EN[Thp]-NH2
modifications: disulfide 2-7
SMILES: C[C@@H](O)[C@@H]1NC(=O)[C@H](CCC(N)=O)NC(=O)[C@@H](NC(=O)[C@@H](CCCNC(=N)N)NC(=O)CC(F)(F)F)C(C)(C)SSC(C)(C)[C@@H](C(=O)N[C@@H](Cc2ccc(OCCN)cc2)C(=O)N[C@@H](Cc2ccc3ccccc3c2)C(=O)NC2(C(=O)N[C@@H](CCC(=O)O)C(=O)N[C@@H](CC(N)=O)C(=O)NC3(C(N)=O)CCOCC3)CCOCC2)NC(=O)[C@H](CCC(N)=O)NC(=O)[C@H](Cc2c[nH]c3ccccc23)NC1=O
B9: Compound No. 3 (peptide)
peptide: Propionyl-[dR][Pen]QTWQ[Pen][AEF][2Nal][Thp]EN[αMeF]-NH2
modifications: disulfide 2-7
SMILES: CCC(=O)N[C@H](CCCNC(=N)N)C(=O)N[C@@H]1C(=O)N[C@@H](CCC(N)=O)C(=O)N[C@@H]([C@@H](C)O)C(=O)N[C@@H](Cc2c[nH]c3ccccc23)C(=O)N[C@@H](CCC(N)=O)C(=O)N[C@H](C(=O)N[C@@H](Cc2ccc(OCCN)cc2)C(=O)N[C@@H](Cc2ccc3ccccc3c2)C(=O)NC2(C(=O)N[C@@H](CCC(=O)O)C(=O)N[C@@H](CC(N)=O)C(=O)N[C@@](C)(Cc3ccccc3)C(N)=O)CCOCC2)C(C)(C)SSC1(C)C
B10: Compound No. 7 (peptide)
peptide: Propionyl-[dR][Pen]QTWQ[Pen][AEF][2Nal][Thp]K(Piv)N[Thp]-NH2
modifications: disulfide 2-7
SMILES: CCC(=O)N[C@H](CCCNC(=N)N)C(=O)N[C@@H]1C(=O)N[C@@H](CCC(N)=O)C(=O)N[C@@H]([C@@H](C)O)C(=O)N[C@@H](Cc2c[nH]c3ccccc23)C(=O)N[C@@H](CCC(N)=O)C(=O)N[C@H](C(=O)N[C@@H](Cc2ccc(OCCN)cc2)C(=O)N[C@@H](Cc2ccc3ccccc3c2)C(=O)NC2(C(=O)N[C@@H](CCCCNC(=O)C(C)(C)C)C(=O)N[C@@H](CC(N)=O)C(=O)NC3(C(N)=O)CCOCC3)CCOCC2)C(C)(C)SSC1(C)C
B11: Compound No. 4 (peptide)
peptide: Propionyl-[dR][Pen]QTWQ[Pen][Phe(4-OMe)][2Nal][Thp]EN[Thp]-NH2
modifications: disulfide 2-7
SMILES: CCC(=O)N[C@H](CCCNC(=N)N)C(=O)N[C@@H]1C(=O)N[C@@H](CCC(N)=O)C(=O)N[C@@H]([C@@H](C)O)C(=O)N[C@@H](Cc2c[nH]c3ccccc23)C(=O)N[C@@H](CCC(N)=O)C(=O)N[C@H](C(=O)N[C@@H](Cc2ccc(OC)cc2)C(=O)N[C@@H](Cc2ccc3ccccc3c2)C(=O)NC2(C(=O)N[C@@H](CCC(=O)O)C(=O)N[C@@H](CC(N)=O)C(=O)NC3(C(N)=O)CCOCC3)CCOCC2)C(C)(C)SSC1(C)C
B12: Compound No. 65 (peptide)
peptide: Ac-[Abu]QT[Trp(7-Me)]K(Ac)C[AEF][2Nal][αMeK]K(Ac)N[dL]-NH2
modifications: thioether 1-6
B13: Compound No. 66 (peptide)
peptide: Ac-[Abu]QT[Trp(7-Me)]K(Ac)C[AEF][2Nal][αMeK]K(Ac)N[αMeF]-NH2
modifications: thioether 1-6
B14: Compound No. 10 (peptide)
peptide: Propionyl-[dR][Pen]QTWQ[Pen][AEF][2Nal][Thp]EN[Thp]-NH2
modifications: disulfide 2-7
SMILES: CCC(=O)N[C@H](CCCNC(=N)N)C(=O)N[C@@H]1C(=O)N[C@@H](CCC(N)=O)C(=O)N[C@@H]([C@@H](C)O)C(=O)N[C@@H](Cc2c[nH]c3ccccc23)C(=O)N[C@@H](CCC(N)=O)C(=O)N[C@H](C(=O)N[C@@H](Cc2ccc(OCCN)cc2)C(=O)N[C@@H](Cc2ccc3ccccc3c2)C(=O)NC2(C(=O)N[C@@H](CCC(=O)O)C(=O)N[C@@H](CC(N)=O)C(=O)NC3(C(N)=O)CCOCC3)CCOCC2)C(C)(C)SSC1(C)C

Target: T1, human IL-23R (interleukin-23 receptor)
Assay: cell-based or functional assay

Compared with B1, B2 is 5.8-fold lower in “NK Cell Assay (nM), IC50, IFN-gamma after IL-23 and IL-18” value (“NK Cell Assay (nM), IC50, IFN-gamma” for short): 16.8 nM for the first, 2.89 nM for the second.

Compared with B3, B4 is 11-fold lower in “NK Cell Assay (nM), IC50, IFN-gamma” value: 72.3 nM for the first, 6.51 nM for the second.

Compared with B5, B6 is 4.3-fold higher in “NK Cell Assay (nM), IC50, IFN-gamma” value: 2.69 nM for the first, 11.6 nM for the second.

Compared with B7, B8 is 1.9-fold higher in “NK Cell Assay (nM), IC50, IFN-gamma” value: 5.44 nM for the first, 10.3 nM for the second.

Compared with B9, B10 is 1.6-fold lower in “NK Cell Assay (nM), IC50, IFN-gamma” value: 20.1 nM for the first, 12.6 nM for the second.

Compared with B11, B12 is 5.3-fold lower in “NK Cell Assay (nM), IC50, IFN-gamma” value: 32.1 nM for the first, 6.03 nM for the second.

Going from B13 to B14, the “NK Cell Assay (nM), IC50, IFN-gamma” value falls from 13.1 nM to 8.29 nM (1.6-fold).

Target: T1, human IL-23R (interleukin-23 receptor)
Assay: cell-based or functional assay
Remark: another data set of the same source

Compared with B1, B5 is higher in “PBMC pSTAT3 IC50 (nM)” value: 8.6 nM for the first, 8.9 nM for the second.

Going from B6 to B8, the “PBMC pSTAT3 IC50 (nM)” value falls from 29 nM to 4.7 nM.

First: B9
Second: B10
The “PBMC pSTAT3 IC50 (nM)” value of the first is higher: 40 nM for the first, 8.6 nM for the second.

With B14 the “PBMC pSTAT3 IC50 (nM)” value was 4.6 nM.

Compared with B1, B2 is lower in “pStat3 HTRF (nM), IC50, DB cells IL23R pSTAT3 cell assay” value (“pStat3 HTRF (nM), IC50” below): 2.46 nM for the first, 0.602 nM for the second.

Going from B3 to B4, the “pStat3 HTRF (nM), IC50” value falls from 24.6 nM to 1.29 nM.

Going from B5 to B6, the “pStat3 HTRF (nM), IC50” value rises from 0.787 nM to 3.12 nM.

Compared with B7, B8 is higher in “pStat3 HTRF (nM), IC50” value: 0.889 nM for the first, 2.94 nM for the second.

Going from B9 to B10, the “pStat3 HTRF (nM), IC50” value rises from 2.31 nM to 3.87 nM.

Compared with B11, B12 is lower in “pStat3 HTRF (nM), IC50” value: 4.17 nM for the first, 0.966 nM for the second.

First: B13
Second: B14
The “pStat3 HTRF (nM), IC50” value of the first is lower: 2.27 nM for the first, 4.16 nM for the second.
